In the supplement of paper PMC5998384:

Tests used:
HeLa Kyoto [1] = assay: thermal stability score vs G1/S (z-score of summed log2 fold changes over temperatures); higher = more thermally stable than in G1/S
HeLa Kyoto [2] = assay: solubility change mitosis vs G1/S (difference of NP-40 vs SDS log2 ratios) (log2 ratio difference); higher = more soluble in mitosis
HeLa Kyoto [3] = assay: melting temperature (median over replicates), in situ; higher = more thermally stable
HeLa Kyoto [4] = assay: solubility in G1/S (NP-40 vs SDS abundance) (log2 ratio); higher = more soluble; details: cell cycle stage: G1/S
[5] = cell cycle stage: early G1 (4.5 h after nocodazole release)
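Wherever melting temperature (median over replicates), in situ is given: HeLa Kyoto cells synchronized by double thymidine or nocodazole block, proteins quantified by TMT10plex mass spectrometry, three independent biological replicates.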
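Wherever solubility change mitosis vs G1/S (difference of NP-40 vs SDS log2 ratios) is given: synchronized HeLa Kyoto cells (double thymidine block for G1/S, nocodazole release for mitosis), protein amounts in NP-40 versus SDS lysates quantified by mass spectrometry, three biological replicates.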
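Wherever solubility in G1/S (NP-40 vs SDS abundance) is given: HeLa Kyoto cells arrested at G1/S by double thymidine block, proteins quantified by TMT10plex mass spectrometry in mild NP-40 versus SDS extracts, three biological replicates.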
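Wherever thermal stability score vs G1/S (z-score of summed log2 fold changes over temperatures) is given: synchronized HeLa Kyoto cells, proteins quantified by TMT10plex mass spectrometry, three biological replicates, mitosis taken 0.5 h after nocodazole release, G1/S directly after double thymidine block.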

Chain of CDC42 (chain, as listed by the source): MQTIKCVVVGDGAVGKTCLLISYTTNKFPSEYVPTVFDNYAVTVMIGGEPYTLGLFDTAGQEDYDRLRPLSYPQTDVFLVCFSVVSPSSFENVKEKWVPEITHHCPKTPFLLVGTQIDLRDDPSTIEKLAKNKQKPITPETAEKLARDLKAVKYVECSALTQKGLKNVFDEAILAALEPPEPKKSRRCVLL

| Substance | thermal stability score (HeLa Kyoto [1]; [5]) | thermal stability score (HeLa Kyoto [1]; cell cycle stage: mitosis) | solubility change mitosis (log2) (HeLa Kyoto [2]) | melting temperature (HeLa Kyoto [3]; cell cycle stage: G1/S) [°C] | melting temperature (HeLa Kyoto [3]; cell cycle stage: mitosis) [°C] | solubility in G1/S (log2) (HeLa Kyoto [4]) |
| --- | --- | --- | --- | --- | --- | --- |
| MFFTCGPNEAMVVSGFCRSPPVMVAGGRVFVLPCIQQIQRISLNTLTLNVKSEKVYTRHGVPISVTGIAQVKIQGQNKEMLAAACQMFLGKTEAEIAHIALETLEGHQRAIMAHMTVEEIYKDRQKFSEQVFKVASSDLVNMGISVVSYTLKDIHDDQDYLHSLGKARTAQVQKDARIGEAEAKRDAGIREAKAKQEKVSAQYLSEIEMAKAQRDYELKKAAYDIEVNTRRAQADLAYQLQVAKTKQQIEEQRVQVQVVERAQQVAVQEQEIARREKELEARVRKPAEAERYKLERLAEAEKSQLIMQAEAEAASVRMRGEAEAFAIGARARAEAEQMAKKAEAFQLYQEAAQLDMLLEKLPQVAEEISGPLTSANKITLVSSGSGTMGAAKVTGEVLDILTRLPESVERLTGVSISQVNHKPLRTA [FLOT1] | -2.16 | 0.224 | 0.121 | 55.3 | 53.7 | -0.837 |
| MLLKTVLLLGHVAQVLMLDNGLLQTPPMGWLAWERFRCNINCDEDPKNCISEQLFMEMADRMAQDGWRDMGYTYLNIDDCWIGGRDASGRLMPDPKRFPHGIPFLADYVHSLGLKLGIYADMGNFTCMGYPGTTLDKVVQDAQTFAEWKVDMLKLDGCFSTPEERAQGYPKMAAALNATGRPIAFSCSWPAYEGGLPPRVNYSLLADICNLWRNYDDIQDSWWSVLSILNWFVEHQDILQPVAGPGHWNDPDMLLIGNFGLSLEQSRAQMALWTVLAAPLLMSTDLRTISAQNMDILQNPLMIKINQDPLGIQGRRIHKEKSLIEVYMRPLSNKASALVFFSCRTDMPYRYHSSLGQLNFTGSVIYEAQDVYSGDIISGLRDETNFTVIINPSGVVMWYLYPIKNLEMSQQ [NAGA] | -1.47 | -2.02 | -0.171 | 54.8 | 54.5 | 0.254 |
| MQMSYAIRCAFYQLLLAALMLVAMLQLLYLSLLSGLHGQEEQDQYFEFFPPSPRSVDQVKAQLRTALASGGVLDASGDYRVYRGLLKTTMDPNDVILATHASVDNLLHLSGLLERWEGPLSVSVFAATKEEAQLATVLAYALSSHCPDMRARVAMHLVCPSRYEAAVPDPREPGEFALLRSCQEVFDKLARVAQPGINYALGTNVSYPNNLLRNLAREGANYALVIDVDMVPSEGLWRGLREMLDQSNQWGGTALVVPAFEIRRARRMPMNKNELVQLYQVGEVRPFYYGLCTPCQAPTNYSRWVNLPEESLLRPAYVVPWQDPWEPFYVAGGKVPTFDERFRQYGFNRISQACELHVAGFDFEVLNEGFLVHKGFKEALKFHPQKEAENQHNKILYRQFKQELKAKYPNSPRRC [B4GAT1] | 0.621 | 0.329 | 0.00523 | 53.7 | 54.1 | 0.284 |
| CDC42 | -1.73 | 1.82 | -0.0727 | 60.1 | 59.8 | 0.629 |
| MVDREQLVQKARLAEQAERYDDMAAAMKNVTELNEPLSNEERNLLSVAYKNVVGARRSSWRVISSIEQKTSADGNEKKIEMVRAYREKIEKELEAVCQDVLSLLDNYLIKNCSETQYESKVFYLKMKGDYYRYLAEVATGEKRATVVESSEKAYSEAHEISKEHMQPTHPIRLGLALNYSVFYYEIQNAPEQACHLAKTAFDDAIAELDTLNEDSYKDSTLIMQLLRDNLTLWTSDQQDDDGGEGNN [YWHAG] | -2.23 | -4.24 | 0.206 | 55.1 | 54.8 | 0.35 |
| MWPQPRLPPRPAMSEETRQSKLAAAKKKLREYQQRNSPGVPTGAKKKKKIKNGSNPETTTSGGCHSPEDTPKDNAATLQPSDDTVLPGGVPSPGASLTSMAASQNHDADNVPNLMDETKTFSSTESLRQLSQQLNGLVCESATCVNGEGPASSANLKDLESRYQQLAVALDSSYVTNKQLNITIEKLKQQNQEITDQLEEEKKECHQKQGALREQLQVHIQTIGILVSEKAELQTALAHTQHAARQKEGESEDLASRLQYSRRRVGELERALSAVSTQQKKADRYNKELTKERDALRLELYKNTQSNEDLKQEKSELEEKLRVLVTEKAGMQLNLEELQKKLEMTELLLQQFSSRCEAPDANQQLQQAMEERAQLEAHLGQVMESVRQLQMERDKYAENLKGESAMWRQRMQQMSEQVHTLREEKECSMSRVQELETSLAELRNQMAEPPPPEPPAGPSEVEQQLQAEAEHLRKELEGLAGQLQAQVQDNEGLSRLNREQEERLLELERAAELWGEQAEARRQILETMQNDRTTISRALSQNRELKEQLAELQSGFVKLTNENMEITSALQSEQHVKRELGKKLGELQEKLSELKETVELKSQEAQSLQQQRDQYLGHLQQYVAAYQQLTSEKEVLHNQLLLQTQLVDQLQQQEAQGKAVAEMARQELQETQERLEAATQQNQQLRAQLSLMAHPGEGDGLDREEEEDEEEEEEEAVAVPQPMPSIPEDLESREAMVAFFNSAVASAEEEQARLRGQLKEQRVRCRRLAHLLASAQKEPEAAAPAPGTGGDSVCGETHRALQGAMEKLQSRFMELMQEKADLKERVEELEHRCIQLSGETDTIGEYIALYQSQRAVLKERHREKEEYISRLAQDKEEMKVKLLELQELVLRLVGDRNEWHGRFLAAAQNPADEPTSGAPAPQELGAANQQGDLCEVSLAGSVEPAQGEAREGSPRDNPTAQQIMQLLREMQNPRERPGLGSNPCIPFFYRADENDEVKITVI [GOLGA2] | 1.74 | 3.29 | 0.0669 | 48.9 | 48.9 | 0.522 |
